{"source": "patent US10655124B2", "about": "“Proximity based methods for selection of binding partners” (THE SCRIPPS RESEARCH INSTITUTE, priority 2014, dated 2020)", "key": {"[1]": {"molecular_target": "glucagon-like peptide 1 receptor (GLP1R) (Homo sapiens, UniProt P43220)", "sequence (P43220 24-426)": "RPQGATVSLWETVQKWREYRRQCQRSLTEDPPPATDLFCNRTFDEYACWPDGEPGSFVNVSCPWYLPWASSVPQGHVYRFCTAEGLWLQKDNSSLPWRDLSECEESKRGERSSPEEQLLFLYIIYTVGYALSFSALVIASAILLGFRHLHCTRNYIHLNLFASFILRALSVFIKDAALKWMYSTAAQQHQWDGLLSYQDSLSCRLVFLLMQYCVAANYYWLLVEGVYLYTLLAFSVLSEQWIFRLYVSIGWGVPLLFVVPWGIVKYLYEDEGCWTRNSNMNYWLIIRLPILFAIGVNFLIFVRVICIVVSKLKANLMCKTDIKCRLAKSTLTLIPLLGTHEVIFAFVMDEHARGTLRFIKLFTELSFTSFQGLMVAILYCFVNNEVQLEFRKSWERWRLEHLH", "assay": "Proximity based reaction assay, GLP1R-TEV cleavage site-transcription factor cell line, luciferase reporter", "settings": "for S/N ratio and noise with different TEV cleavage sites: GLP1R (1-426) constructions, Exendin-4 ligand, 1-3 days post infection"}, "[2]": {"molecular_target": "T1, GLP1R (Homo sapiens, UniProt P43220)", "T1 construct": "Four TEV cleavage sites that are cleaved with varying efficiency were used for the GLP1R (1-426) constructions; expressed in transfected cells", "T1 sequence (P43220 24-426, species assumed)": "as the sequence (P43220 24-426) above", "assay": "Proximity based reaction assay, GLP1R constructions, tdTomato reporter, fluorescent microscopy", "assay_type": "cell-based", "from_the_text": "Stable cell lines containing the tdTomato reporter gene under control of UAS and GLP1R constructions with different TEV cleavage sites were studied."}, "[3]": {"molecular_target": "CXCR4 (Homo sapiens, UniProt P61073)", "sequence (P61073 whole entry, species assumed)": "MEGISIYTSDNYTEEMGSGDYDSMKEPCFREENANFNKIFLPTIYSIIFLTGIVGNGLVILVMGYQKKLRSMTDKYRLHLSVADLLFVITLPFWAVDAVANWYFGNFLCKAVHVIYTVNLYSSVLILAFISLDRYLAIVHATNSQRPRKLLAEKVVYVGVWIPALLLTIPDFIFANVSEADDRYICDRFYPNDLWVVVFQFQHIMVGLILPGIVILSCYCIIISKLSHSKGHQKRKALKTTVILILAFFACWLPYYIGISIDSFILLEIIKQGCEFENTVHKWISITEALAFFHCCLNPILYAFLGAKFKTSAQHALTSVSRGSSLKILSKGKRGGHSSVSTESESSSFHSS", "assay": "Proximity based reaction assay with irrelevant receptor CXCR4 replacing GLP1R", "assay_type": "cell-based", "settings": "irrelevant G protein-coupled receptor control"}, "[4]": {"molecular_target": "T2, Thrombopoietin receptor (TpoR) (Homo sapiens, UniProt P40238)", "T2 construct": "The coding region of TpoR or GLP1R was followed by the TEV protease cleavage site and the GAL4-VP16 transcription factor; expressed in transfected cells", "T2 sequence (P40238 26-635)": "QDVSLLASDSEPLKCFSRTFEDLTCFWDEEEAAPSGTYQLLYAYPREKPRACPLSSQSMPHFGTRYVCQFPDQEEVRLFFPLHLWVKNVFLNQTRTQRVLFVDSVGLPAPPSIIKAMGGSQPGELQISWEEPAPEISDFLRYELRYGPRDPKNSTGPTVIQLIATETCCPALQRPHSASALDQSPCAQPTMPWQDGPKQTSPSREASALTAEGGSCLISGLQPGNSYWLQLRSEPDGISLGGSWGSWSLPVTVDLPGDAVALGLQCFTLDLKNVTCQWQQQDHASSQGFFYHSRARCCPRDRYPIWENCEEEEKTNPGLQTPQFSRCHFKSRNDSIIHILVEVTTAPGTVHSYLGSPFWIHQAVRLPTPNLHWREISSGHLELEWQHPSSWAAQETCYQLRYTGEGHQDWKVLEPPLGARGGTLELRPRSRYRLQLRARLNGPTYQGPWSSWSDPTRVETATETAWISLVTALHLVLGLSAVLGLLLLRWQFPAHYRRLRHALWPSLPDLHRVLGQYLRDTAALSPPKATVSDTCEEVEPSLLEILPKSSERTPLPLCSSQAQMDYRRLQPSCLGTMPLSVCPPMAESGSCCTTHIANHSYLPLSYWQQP", "assay": "Proximity based reaction assay, TpoR-TEV cleavage site-transcription factor cell line, luciferase reporter", "source_text": "FIG. 2. Proximity based identification of Thrombopoietin receptor (TpoR) activation. Stable cell lines harboring the luciferase reporter gene under control of UAS and TpoR-TEV cleavage site-transcription factor were established. Cells were transduced with lentivirus encoding Thrombopoietin (TPO) or the TpoR binding antibodies 3D9 or 14F12. Genes encoding different linkers including 3, 5, 6, 8, or 10 copies of (GGGGS) (SEQ ID NO:1) or a human IgG1 Fc were placed between the ligand and PDGFR trans-membrane domain. Luciferase activities were measured 2 days post infection. The cell line harboring GLP1R-TEV cleavage site-Transcription factor was used as negative cell control. The reaction was controlled by measuring the luminescence signals from control lentivirus carrying irrelevant antibodies with the same linker type and length.\nThe stable cell line harboring both the UAS-reporter gene and receptor-cleavage site-transcription factor was plated in a 96 well plate at 20000 cells per well. Cells were infected by lentivirus carrying the ligand-TM-TEV protease at MOI equal to 1. Cells were cultured for 24-72 h before measuring the reporter gene activity. Luciferase activity was determined by using a luciferase assay system (Promega) while expression of tdTomato was observed by fluorescent microscopy.\nA similarly constructed irrelevant antibody was used as a negative control. […]"}, "[5]": {"system": "glucagon-like peptide 1 receptor (GLP1R)", "assay": "Proximity based reaction assay, GLP1R-TEV cleavage site-transcription factor cell line, luciferase reporter", "settings": "orthogonal control for non-specific interactions; membrane displayed ligand"}}, "data": [{"substance": "ENFYFQS (SEQ ID NO:5) [TEV 2]", "values": [{"measurement": "S/N ratio and noise with different TEV cleavage sites", "setting": "[1]", "result": "highest S/N ratio"}, {"measurement": "background with different TEV cleavage sites, tdTomato reporter", "setting": "[2]", "result": "much lower background"}]}, {"substance": "ENLFFQS (SEQ ID NO:7) [TEV 4]", "values": [{"measurement": "S/N ratio and noise with different TEV cleavage sites", "setting": "[1]", "result": "very high level of noise"}]}, {"substance": "ENLYFQS (SEQ ID NO:4) [TEV1]", "values": [{"measurement": "S/N ratio and noise with different TEV cleavage sites", "setting": "[1]", "result": "very high level of noise"}]}, {"substance": "ENLYYQS (SEQ ID NO:6) [TEV 3]", "values": [{"measurement": "background with different TEV cleavage sites, tdTomato reporter", "setting": "[2]", "result": "much lower background"}]}, {"substance": "Exendin-4", "values": [{"measurement": "response when CXCR4 replaced the GLP1R", "setting": "[3]", "result": "no response"}]}, {"substance": "Thrombopoietin [TPO]", "values": [{"measurement": "transcription factor mediated signal relative to the irrelevant antibody control", "setting": "[4]; ligand displayed at plasma membrane via PDGFR TM-TEV protease, lentivirus, luciferase 2 days post infection", "result": "increased the transcription factor mediated signal"}, {"measurement": "effect of linker length between ligand and TM domain on proximity-based signal", "setting": "[4]; tandem repeats of GGGGS linker", "result": "generated similar signals"}, {"measurement": "signal in cells bearing the wrong receptor (GLP1R-transcription factor fusion cell line)", "setting": "[5]", "result": "did not increase the signal"}]}, {"substance": "Vc1.1", "values": [{"measurement": "signal to noise (S/N) ratio, non-specific peptide control", "setting": "[1]", "result": "even lower S/N"}]}]}
